From article PMC5998024, “Hydrophobic pore gates regulate ion permeation in polycystic kidney disease 2 and 2L1 channels” (Nature Communications, 2018) come the findings set out here.

The series concerns the molecule itself. Kind of series: cryo-EM structure; single-particle cryo-EM of purified PKD2 F604P (53-792) in amphipols A8-35; C4 symmetry imposed, reconstruction without imposed symmetry also showed C4 symmetry; 3.5 Å.

B1: maltose binding protein fused human PKD2 protein, residues 53-792, harboring the F604P GOF mutation (domain or fragment, UniProt Q13563-1 53-792, looked up)
chain: EIEMQRIRQAAARDPPAGAAASPSPPLSSCSRQAWSRDNPGFEAEEEEEEVEGEEGGMVVEMDVEWRPGSRRSAASSAVSSVGARSRGLGGYHGAGHPSGRRRRREDQGPPCPSPVGGGDPLHRHLPLEGQPPRVAWAERLVRGLRGLWGTRLMEESSTNREKYLKSVLRELVTYLLFLIVLCILTYGMMSSNVYYYTRMMSQLFLDTPVSKTEKTNFKTLSSMEDFWKFTEGSLLDGLYWKMQPSNQTEADNRSFIFYENLLLGVPRIRQLRVRNGSCSIPQDLRDEIKECYDVYSVSSEDRAPFGPRNGTAWIYTSEKDLNGSSHWGIIATYSGAGYYLDLSRTREETAAQVASLKKNVWLDRGTRATFIDFSVYNANINLFCVVRLLVEFPATGGVIPSWQFQPLKLIRYVTTFDFFLAACEIIFCFFIFYYVVEEILEIRIHKLHYFRSFWNCLDVVIVVLSVVAIGINIYRTSNVEVLLQFLEDQNTFPNFEHLAYWQIQFNNIAAVTVFFVWIKLFKFINFNRTMSQLSTTMSRCAKDLFGFAIMPFIIFLAYAQLAYLVFGTQVDDFSTFQECIFTQFRIILGDINFAEIEEANRVLGPIYFTTFVFFMFFILLNMFLAIINDTYSEVKSDLAQQKAEMELSDLIRKGYHKALVKLKLKKNTVDDISESLRQGGGKLNFDELRQDLKGKGHTDAEIEAIFTKYDQDGDQELTEHEHQQMRDDLEKEREDLDLD
notes: human PKD2 (polycystin-2, TRPP2), residues 53-792 (E53-D792), with the gain-of-function mutation F604P; cytoplasmic N- and C-termini not seen in the map; also called PKD2 F604P; F604P mutant; source: HEK293S GnTI- cells, transduced with baculovirus, purified (amylose resin, amphipols A8-35, Superdex 200)
By stoichiometry N is commonly meant the number of molecules, sites or subunits per partner or assembly. Consider B1, for which the “stoichiometry N” value was 4.
